From article doi:10.1101/2020.12.22.423932 (bioRxiv, 2020) come the findings set out here.

For this assay, the target named is mono-ubiquitin (UniProt P0CG48 1-76). Briefly: MST.

A word on the Kd: it is the concentration at which binding is half-saturated. Read a low Kd as tighter binding.

B1: human α5 subunit, wild type, recombinant (natural protein)
chain: MFLTRSEYDRGVNTFSPEGRLFQVEYAIEAIKLGSTAIGIQTSEGVCLAVEKRITSPLMEPSSIEKIVEIDAHIGCAMSGLIADAKTLIDKARVETQNHWFTYNETMTVESVTQAVSNLALQFGEEDADPGAMSRPFGVALLFGGVDEKGPQLFHMDPSGTFVQCDARAIGSASEGAQSSLQEVYHKSMTLKEAIKSSLIILKQVMEEKLNATNIELATVQPGQNFHMFTKEELEEVIKDI
modifications: labelled with RED-NHS 2nd Generation dye
As for B1, the Kd stood at 57.7 µM.
